Assay results reported in patent US11034757B2, “Combination therapies using agents that target tumor-associated stroma or tumor cells and tumor vasculature” (BIOMED VALLEY DISCOVERIES, INC., priority 2014, dated 2021).

Assays:
UACC melanoma cells = assay: TEM8 antibody efficacy in UACC melanoma model; assay type: in vivo, mouse; settings: 15 mg/kg, 3 times per week for 3-4 weeks; start at 50 mm^3
Protocol: UACC melanoma cells were cultured and injected subcutaneously into mice. Treatment was initiated with a tumor volume of 50 mm^3, and treatment groups consisted of one of four TEM8 antibodies (M825, M830, M863, and M822), each dosed at 15 mg/kg, 3 times per week for 3-4 weeks.

[1] = tested on: MC38 colon carcinoma liver metastasis; assay: M830 in MC38 colon carcinoma liver metastasis model; assay type: in vivo, C57BL/6 mice
Text: C57BL/6 mice were challenged with MC38 colon carcinoma liver metastasis by intrasplenic injections of cultured cells.

[2] = tested on: H460 non-small cell lung carcinoma xenograft; assay: M830 in the H460 non-small cell lung carcinoma xenograft model; assay type: in vivo, mouse; settings: combination partner Paclitaxel
Protocol: Tumor cells were cultured in RPMI-1640 medium supplemented with 10% fetal bovine serum, 2 mM glutamine, 100 units/mL penicillin G sodium, 100 μg/mL streptomycin sulfate, and 25 μg/mL gentamicin. The tumor cells were grown in tissue culture flasks in a humidified incubator at 37° C., in an atmosphere of 5% CO2 and 95% air.
Criteria for Regression Responses
Animals were monitored for regression responses.
The statistical tests were not adjusted for multiple comparisons.
Cultured H460 cells were harvested during exponential growth and resuspended in phosphate buffered saline at a concentration of 1×10^8 cells/mL. 1.0×10^7 tumor cells were injected subcutaneously into the flank of athymic nude mice. Animals were euthanized when tumors reached the pre-determined volume endpoint of 2000 mm^3 or on the final day (Day 88), whichever came first. […] Each treatment produced a significant survival difference versus controls (P<0.01). The median TTE for controls was 22.8 days, establishing a maximum possible TGD of 65.2 days (286%) for the 88-day study.

B1: M830: anti-TEM8 monoclonal antibody (hIgG1); VH SEQ ID NO:5, VL SEQ ID NO:6 (antibody, V domains shown)
VH: EVQLVESGGGVVQPGRSVRLSCAASGFTFSTYTMHWVRQAPGKGLEWVAIISNDGSNKYYADPVRGRFTISRDNSKNTLYLQMNSLRAEDTAVYYCVRGSSWYRGNWFDPWGQGTLVTVSS
VL: DIQMTQSPSSLSASVGDRVTIACRASQTISRYLNWYQQKPGKAPKLLIYAASSLQSGVSSRFSGSGSGTEFTLTISSLQPEDFATYFCQQTYSPPITFGQGTRLEIKR
modifications: TEM830 mAb VH; TEM830 mAb VL
effect on tumor growth in the UACC melanoma model (UACC melanoma cells): effective at slowing tumor growth
effect on survival ([1]; P=0.0001): significantly improved the survival
median survival ([1]; vehicle 11 days): 17 days
regression (at Day 21, vs. vehicle column) [2]: (−61%
